# Laboratory results from US20110039257A1.
# B1: CPM firefly luciferase serine/threonine kinase biosensor, construct pBFB340: Met-(Luc2.0 A-544)-(linker X)-…-(…)-(Rad53p FHA2 domain)-(linker Y)-(Luc2.0 4-B) (protein, part only; not given: luciferase fragments and linkers, part only)
# chain, part: RKRDRLGTLGIGGSSGGGSGGGGSGGGNGRFLTLKPLPDSIIQESLEIQQGVNPFFIGRSEDCNCKIEDNRLSRVHCFIFKKRHAVGKSMYESPAQGLDDIWYCHTGTNVSYLNNNRMIQGTKFLLQDGDEIKIIWDKNNKFVIGFKVEINDTTGLFNEGLGMLQEQRVVLKQTAEEKDLVKKL
# Molecular target: Akt1/PKB alpha recombinant enzyme (Upstate Biotechnology)
# Assay: cell-based or functional assay
# Akt1/PKB alpha recombinant enzyme (Upstate Biotechnology), sequence (P31749 whole entry): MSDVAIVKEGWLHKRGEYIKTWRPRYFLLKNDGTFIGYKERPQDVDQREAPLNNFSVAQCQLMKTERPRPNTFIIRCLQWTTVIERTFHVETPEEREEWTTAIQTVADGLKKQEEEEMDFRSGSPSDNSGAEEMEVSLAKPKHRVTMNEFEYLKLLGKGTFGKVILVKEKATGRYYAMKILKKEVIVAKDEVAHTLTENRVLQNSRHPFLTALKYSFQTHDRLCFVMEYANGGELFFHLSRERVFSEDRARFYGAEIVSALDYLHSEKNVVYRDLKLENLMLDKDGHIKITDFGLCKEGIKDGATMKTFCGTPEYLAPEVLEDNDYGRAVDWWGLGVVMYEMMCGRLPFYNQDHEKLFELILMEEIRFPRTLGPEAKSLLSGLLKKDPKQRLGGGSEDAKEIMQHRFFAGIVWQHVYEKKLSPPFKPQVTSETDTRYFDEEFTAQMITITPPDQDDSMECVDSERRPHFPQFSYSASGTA
binder,measurement,value
B1,decrease in luminescence (luciferase activity) with versus without Akt1/PKB,50%
